Measurements from paper PMC9135769, “A topological refactoring design strategy yields highly stable granulopoietic proteins” (Nature Communications, 2022).

Assays:
G-CSFR (Homo sapiens) [1] = molecular target: G-CSFR (Homo sapiens) (UniProt Q99062); test: SPR; conditions: cited from earlier work
G-CSFR (Homo sapiens) [2] = molecular target: G-CSFR (Homo sapiens) (UniProt Q99062); test: ITC; conditions: cited from earlier work
G-CSF Receptor (G-CSFR) = molecular target: T1, G-CSF Receptor (G-CSFR) (human, UniProt Q99062 25-333); test: SPR; G-CSFR amine-coupled on a CM5 chip (Biacore X100), analytes flowed over, multi-cycle kinetics, 25 °C, 10 mM HEPES pH 7.4, 150 mM NaCl, 3.4 mM EDTA, 0.005% Tween-20; 1:1 model, linear fit of kobs against concentration; legend speaks of apparent affinity for the bivalent ligands; conditions: both partners purified
T1 construct: G-CSF receptor (G-CSFR), human, bought recombinant protein; In the functional rows the receptor is the one on the cells of the test (murine NFS-60 or human CD34+ HSPCs); also called human G-CSFR; human G-CSF receptor; source: bought: R&D systems 381-GR-050/CF
T1 sequence: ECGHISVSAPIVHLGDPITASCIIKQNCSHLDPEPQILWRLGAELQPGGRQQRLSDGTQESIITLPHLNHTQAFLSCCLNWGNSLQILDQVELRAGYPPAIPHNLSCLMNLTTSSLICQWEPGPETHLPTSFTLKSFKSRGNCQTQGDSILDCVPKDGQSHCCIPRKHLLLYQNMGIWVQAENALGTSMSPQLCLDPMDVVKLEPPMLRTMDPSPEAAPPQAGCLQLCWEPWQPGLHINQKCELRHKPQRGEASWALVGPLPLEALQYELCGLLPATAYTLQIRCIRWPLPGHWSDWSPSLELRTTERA

In the case of G-CSF (from UniProt P09919), the Kd (G-CSFR (Homo sapiens) [1]) is given as 0.2 nM and the Kd (G-CSFR (Homo sapiens) [2]) is given as 1.4 nM.

B1: Recombinant human G-CSF (rhG-CSF), USP RS Filgrastim (ligand, UniProt P09919-2 31-204, looked up)
chain: TPLGPASSLPQSFLLKCLEQVRKIQGDGAALQEKLCATYKLCHPEELVLLGHSLGIPWAPLSSCPSQALQLAGCLSQLHSGLFLYQGLLQALEGISPELGPTLDTLQLDVADFATTIWQQMEELGMAPALQPTQGAMPAFASAFQRRAGGVLVASHLQSFLEVSYRVLRHLAQP
notes: granulocyte-colony stimulating factor (G-CSF), human, recombinant; printed length 174 amino acids; also called granulocyte-colony stimulating factor; wild-type G-CSF; source: bought: USP RS Filgrastim, Sigma-Aldrich 1270435
Molecule B1 has a Kd (G-CSF Receptor (G-CSFR)) of 1.1 nM, a koff (G-CSF Receptor (G-CSFR)) of 0.00049 s⁻¹ and a kon (G-CSF Receptor (G-CSFR)) of 300000 M⁻¹ s⁻¹.
